According to the supplement of paper PMC10724198:
± gives the standard deviation of the averaged measurements.

System: Saccharomyces cerevisiae
Assay: protein stability index of tFT-peptide fusion (C-terminal peptide) (PSI (0-1 scale)); higher = more stable (slower turnover)
Details: genetic background: wild type; temperature: 30 C
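Note: PSI is a weighted mean of sequencing reads over stability bins, variants kept only with over 10 reads, mCherry proximal and sfGFP distal, peptide attached via GGGS linker.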

Row | Sequence | protein stability index
1 | NKKTYHRPTKNY | 0.693 ± 0.015
2 | NKRKDEIKPRNV | 0.581 ± 0.049
3 | NKRKTKNKERRA | 0.65 ± 0.012
4 | NKSPWYYILQPM | 0.738 ± 0.082
5 | NKSTAEVKMEIR | 0.686 ± 0.064
6 | NKVLHPGGKPLT | 0.6637 ± 0.0062
7 | NKWKASRKYRKR | 0.723 ± 0.025
8 | NLARPTRTFAGV | 0.684 ± 0.013
9 | NLCTPRFATDFG | 0.629 ± 0.028
10 | NLFDHIHRSTPS | 0.761 ± 0.0078
11 | NLIGVVKSEYHR | 0.574 ± 0.01
12 | NMLWSLGRGGSC | 0.6648 ± 0.0029
13 | NMRQGPLAGLAG | 0.748 ± 0.072
14 | NNKSNKKKERKE | 0.698 ± 0.053
15 | NNMFFTREYEKL | 0.674 ± 0.013
16 | NNMSFLPMLDYT | 0.65 ± 0.042
17 | NNQKTKLNEKNC | 0.647 ± 0.048
18 | NNVCGIIFRQHH | 0.632 ± 0.048
19 | NPARPRPPPRER | 0.595 ± 0.057
20 | NPDVYKRNYQHK | 0.605 ± 0.035
21 | NPLHGNIRLSPL | 0.685 ± 0.046
22 | NPPELPVTENNP | 0.821 ± 0.17
23 | NPPSRLPRLPLH | 0.728 ± 0.043
24 | NPWYCVWYGAIT | 0.626 ± 0.068
25 | NQEIGLRNQGRV | 0.69 ± 0.033
26 | NQPSHPRPHAER | 0.666 ± 0.045

Row | Sequence | protein stability index
27 | NRELTAVTFQRY | 0.709 ± 0.05
28 | NRKGNKGEKNTK | 0.676 ± 0.048
29 | NRPKVNSQERGY | 0.666 ± 0.02
30 | NRQNYAEDLKSC | 0.683 ± 0.02
31 | NRSIFITMDSSL | 0.676 ± 0.011
32 | NRSMFSSQNDNA | 0.671 ± 0.066
33 | NRYKIKKKIERR | 0.6 ± 0.039
34 | NSGSNKSNNRKC | 0.726 ± 0.032
35 | NSPRKKPHKSIT | 0.711 ± 0.014
36 | NSSPCPLPLLPP | 0.662 ± 0.036
37 | NSVHVRGRFITK | 0.678 ± 0.023
38 | NSVPSPSRSLPP | 0.666 ± 0.081
39 | NTCKMRTRNIKA | 0.635 ± 0.0068
40 | NTEKNKRDRYQK | 0.722 ± 0.019
41 | NTNPVHLKTHQT | 0.713 ± 0.011
42 | NTQLPASPVSQG | 0.628 ± 0.027
43 | NTSRSKKKVNSK | 0.704 ± 0.035
44 | NTSVSGTGVSSK | 0.762 ± 0.12
45 | NTTIQLWVERRQ | 0.679 ± 0.063
46 | NTVLPTPTMSPP | 0.702 ± 0.04
47 | NVIVRVPFVLEE | 0.692 ± 0.059
48 | NVMVRIGKGGVD | 0.6664 ± 0.0041
49 | NVSFHRSHLLYF | 0.654 ± 0.0067
50 | NYCKGFLLRANI | 0.645 ± 0.071
51 | NYKFENQIAKPP | 0.655 ± 0.077
52 | PAACLSLPPPPS | 0.706 ± 0.031

Row | Sequence | protein stability index
53 | PAFGLSPPSFST | 0.728 ± 0.089
54 | PAFPSPFPTSSL | 0.647 ± 0.099
55 | PAISPPSPPPLP | 0.685 ± 0.047
56 | PALPPAPPPPPP | 0.693 ± 0.044
57 | PANASAEGDTSP | 0.682 ± 0.0082
58 | PANLLHPSDPPP | 0.612 ± 0.0064
59 | PAPLLPPSWRHP | 0.716 ± 0.015
60 | PAPPAPPPPPYL | 0.735 ± 0.087
61 | PAPPHPRHPPPP | 0.649 ± 0.018
62 | PAPPHTLPVWAD | 0.728 ± 0.029
63 | PAPPLPPLPLLP | 0.684 ± 0.013
64 | PAPPPHIPPSPS | 0.651 ± 0.023
65 | PAPRARTPLDRI | 0.683 ± 0.039
66 | PAPRFPFLFHPL | 0.776 ± 0.035
67 | PAQDCAATGVRR | 0.672 ± 0.037
68 | PARASLRCLCRN | 0.662 ± 0.055
69 | PARLQSTLHPRF | 0.634 ± 0.012
70 | PARPNMHTTPAD | 0.646 ± 0.02
71 | PARPQSFPPPNV | 0.669 ± 0.035
72 | PARPSPRPHLPD | 0.692 ± 0.04
73 | PARPSSLQLFPY | 0.747 ± 0.0078
74 | PARQDRPPDHAS | 0.729 ± 0.031
75 | PARRPPLPRLFL | 0.665 ± 0.032
76 | PASLPTPLPLPP | 0.618 ± 0.016
77 | PATPSPLSSSAP | 0.711 ± 0.039
78 | PAVAPRSTYAWH | 0.69619 ± 0.00054

Row | Sequence | protein stability index
79 | PCGGVGRECVRG | 0.762 ± 0.032
80 | PCPGSPPCHFYF | 0.691 ± 0.018
81 | PCPRPTPLPPFP | 0.701 ± 0.055
82 | PCPVLPLPPFYL | 0.728 ± 0.0074
83 | PCRRPSSAPFPV | 0.696 ± 0.027
84 | PCSGSFFLEFRV | 0.707 ± 0.021
85 | PCSVDKAGSTKK | 0.606 ± 0.014
86 | PDCSFLNSTFTS | 0.739 ± 0.088
87 | PDGREQLVNGVT | 0.6359 ± 0.0019
88 | PDGTGPLCAPEP | 0.646 ± 0.059
89 | PDPPPRCRFLPL | 0.698 ± 0.044
90 | PDQPQPRPATNQ | 0.681 ± 0.022
91 | PDRIQPRSVLLP | 0.7293 ± 0.0047
92 | PDVPLASPSPFR | 0.625 ± 0.023
93 | PEFNKLNRFVSQ | 0.74 ± 0.11
94 | PEGPHTRTVVPA | 0.66 ± 0.0088
95 | PEITWFVIGVIE | 0.541 ± 0.043
96 | PEPSRRASAVSN | 0.648 ± 0.059
97 | PERFHLVCWVGR | 0.712 ± 0.083
98 | PFALPPPSPFPP | 0.7116 ± 0.0063
99 | PFAVKYIFEVWK | 0.591 ± 0.028
100 | PFCVPPPRPFSL | 0.743 ± 0.036
101 | PFESSRRLAPSP | 0.722 ± 0.035
